Consider two molecules from US12391768B2, “Antibodies to ticagrelor and methods of use” (MEDIMMUNE LIMITED, priority 2014, dated 2025).

Details of data set [1]: species or system mice. The note with it: mouse, in vivo. As to the method: The method was optimized based on a previous published method [Sillen H., et al., J Chromatogr B Analyt Technol Biomed Life Sci. 2011 Aug. 1; 879(23): 2315-22]. Dialysis membranes (Spectrum Laboratories, Inc) which allows molecules with a mass below 6 to 8 kDa to pass through, was soaked in ELGA water for 10 to 15 min and placed between the dialysis plate halves (in house made). Plasma, 130 μL, was added to one side of the dialysis plate and 130 μL phosphate buffer, pH 7.0, was added to the opposite side. The wells on both sides were sealed with lids and aluminum plates were put on top on each side of the plate to avoid leakage. The plate was then placed vertical on an orbital shaker at 100 rpm/min at 37° C. for 24 h. The dialysis was terminated by transferring of 50 μL retentate from plasma side and 75 μL dialysate from buffer side to a protein LoBind PCR clean 96 deep-well plate containing 150 μL respective 75 μL internal standard (D7-ZD6140) in acetonitrile. The plate was mixed for 1 min and then centrifuged for 20 min, 1500× g at 4° C. After centrifugation 50 μL supernatant from the precipitated retentate was transferred and diluted with 50 μL ELGA H2O before LC-MS/MS (Acquity Ultra Performance LC coupled to a Xevo TQ-S mass spectrometer, Waters) analysis. No quality control samples were used in the analysis. […]

Data set [2] concerns TAM mediated inhibition of ADP-induced platelet aggregation. Description: Light transmission aggregometry in human PRP, reversal of TAM. Type of data set: cell-based. Particulars: for mean extent of TAM reversal: Example 10, 1 μM Fab, n=3. As for the experimental part: The extent and potency of TICA0212/MEDI2452 to reverse ticagrelor or TAM mediated inhibition of ADP-induced platelet aggregation was determined in human platelet rich plasma (PRP) using light transmission aggregometry.
For the in vitro human PRP assay, blood was collected from fasted healthy volunteers by vein puncture of vena cephalica. […] The anticoagulated human blood was centrifuged at 240× g for 15 min. PRP was carefully removed and transferred to a clean vial. Platelet poor plasma (PPP) was prepared by centrifugation of the PRP at 2000× g for 15 min. Light transmission aggregometry (LTA) was evaluated in PRP by the Platelet Aggregation Profiler (PAP-8E, Bio/Data Corporation, PA, USA.). Zero % aggregation was defined as the light transmission of PRP and 100% aggregation was defined as the light transmission of PPP.
PRP was preincubated with 1 μM ticagrelor or TAM for 1 hour before co-incubating with different concentrations of TICA0212 or an isotype control Fab for 30 minutes. Platelet aggregation was initiated by addition of 20 uM ADP and was continuously recorded for 6 min. Data for final aggregation (FA) extent at 6 min was analysed.
The time of onset of TICA0212/MEDI2452 to reverse ticagrelor or TAM was determined in human platelet rich plasma (PRP) using light transmission aggregometry as in example 8. PRP was preincubated with 1 μM ticagrelor or TAM for 1 hour before adding 1 μM TICA0212/MEDI2452 and co-incubating for 5, 10, 15, 30 and 60 min, or adding an isotype control Fab for 30 min. Platelet aggregation was initiated by addition of 20 μM ADP and was continuously recorded for 6 min. Data for final aggregation (FA) extent at 6 min was analyzed.

As for `CCCSc1nc(N[C@@H]2C[C@H]2c2ccc(F)c(F)c2)c2nnn([C@@H]3C[C@H](OCCO)[C@@H](O)[C@H]3O)c2n1` [Ticagrelor, (1S,2S,3R,5S)-3-[7-{[(1R,2S)-2-(3,4-difluorophenyl)cyclopropyl]amino}-5-(propylthio)-3H-[1,2,3]triazolo[4,5-d]pyrimidin-3-yl]-5-(2-hydroxyethoxy)cyclopentane-1,2-diol], in data set [1], the “mean free plasma concentration of ticagrelor” value is given as 4.7 nM.

B1: TICA0212: combination of TICA0162 and TICA0152; VH SEQ ID NO:72, VL SEQ ID NO:77 (antibody, listed as Homo sapiens, V domains shown)
VH: QVQLQESGAEVKKPGSSVRVSCKASGGTFDSYSIHWVRQAPGQGLEWMGGIIPAFGTLSSAQDFQARVTISADKSTSTAYMELSGLRSEDTAVYYCARGSFDYYFWSASHPPNDALAIWGQGTLVTVSS
VL: QSVVTQPPSVSAAPGQKVTISCSGSNSDIGNNYVSWYQQLPGTAPKLLIYDNNKRPSGIPDRFSGSKSGTSATLAITGLQAGDEADYYCGTWLYDRAVGLFGGGTKVTVL
What is called IC50 is the concentration at which inhibition is half-maximal. Take B1: the IC50 in data set [2] (1 μM TAM, 20 μM ADP, human PRP, 30 min co-incubation, mean n=5, read-out: IC50, half-maximum reversal of TAM mediated inhibition of ADP-induced platelet aggregation) amounted to 780 nM. For the same molecule, the “mean extent of reversal of TAM” value in data set [2] (Example 9, 1:1 conditions (1 μM Fab: 1 μM TAM), 30 min incubation) is on record as 62%. Besides, the “mean extent of TAM reversal” value is reported as 53% in data set [2] (1 μM TAM, co-incubation 5 min); 56% in data set [2] (1 μM TAM, co-incubation 10 min); 58% in data set [2] (1 μM TAM, co-incubation 15 min); 69% in data set [2] (1 μM TAM, co-incubation 30 min); 74% in data set [2] (1 μM TAM, co-incubation 60 min).
